T1: FcγRIIb extracellular domain with C-terminal His tag (human, UniProt P31994 43-217)
T1 construct: extracellular domain; also called FcgRIIb; 2b
T1 sequence (looked up): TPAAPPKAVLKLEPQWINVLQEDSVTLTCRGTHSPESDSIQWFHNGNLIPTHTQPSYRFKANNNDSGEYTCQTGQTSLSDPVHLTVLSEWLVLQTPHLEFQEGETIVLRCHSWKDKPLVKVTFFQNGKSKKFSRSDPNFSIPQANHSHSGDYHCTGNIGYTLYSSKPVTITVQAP

B1: GpH7-B3 variant K326_20W/GpL16-k0 (antibody, human IgG1, kappa)
heavy: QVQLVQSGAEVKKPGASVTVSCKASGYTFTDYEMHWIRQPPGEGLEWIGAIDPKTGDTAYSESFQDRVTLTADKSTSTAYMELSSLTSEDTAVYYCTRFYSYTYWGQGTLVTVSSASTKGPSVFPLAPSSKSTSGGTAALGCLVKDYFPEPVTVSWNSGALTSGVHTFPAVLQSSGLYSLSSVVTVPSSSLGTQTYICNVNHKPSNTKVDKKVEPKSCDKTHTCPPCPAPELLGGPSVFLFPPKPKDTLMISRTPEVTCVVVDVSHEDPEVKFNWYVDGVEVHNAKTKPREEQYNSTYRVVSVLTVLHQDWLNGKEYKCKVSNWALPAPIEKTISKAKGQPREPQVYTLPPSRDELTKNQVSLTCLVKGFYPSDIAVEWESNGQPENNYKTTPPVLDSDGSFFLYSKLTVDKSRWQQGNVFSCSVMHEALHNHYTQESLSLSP
light: DIVMTQSPLSLPVTPGEPASISCQASESLVHSNRNTYLHWYLQKPGQSPQLLIYKVSNRFSGVPDRFSGSGSGTDFTLKISRVEAEDVGVYYCSQNTHVPPTFGQGTKVEIERTVAAPSVFIFPPSDEQLKSGTASVVCLLNNFYPREAKVQWKVDNALQSGNSQESVTEQDSKDSTYSLSSTLTLSKADYEKHKVYACEVTHQGLSSPVTKSFNRGEC
notes: also called Ho Ab K326_20W
B2: GpH7-B3 variant G237_06M/GpL16-k0 (antibody, human IgG1, kappa)
heavy: not shown
light: B1 light
notes: also called Ho Ab G237_06M
B3: GpH7-B3 variant I336_08L/GpL16-k0 (antibody, human IgG1, kappa)
heavy: not shown
light: B1 light
notes: also called Ho Ab I336_08L
B4: GpH7-B3 variant L235_09D/GpL16-k0 (antibody, human IgG1, kappa)
heavy: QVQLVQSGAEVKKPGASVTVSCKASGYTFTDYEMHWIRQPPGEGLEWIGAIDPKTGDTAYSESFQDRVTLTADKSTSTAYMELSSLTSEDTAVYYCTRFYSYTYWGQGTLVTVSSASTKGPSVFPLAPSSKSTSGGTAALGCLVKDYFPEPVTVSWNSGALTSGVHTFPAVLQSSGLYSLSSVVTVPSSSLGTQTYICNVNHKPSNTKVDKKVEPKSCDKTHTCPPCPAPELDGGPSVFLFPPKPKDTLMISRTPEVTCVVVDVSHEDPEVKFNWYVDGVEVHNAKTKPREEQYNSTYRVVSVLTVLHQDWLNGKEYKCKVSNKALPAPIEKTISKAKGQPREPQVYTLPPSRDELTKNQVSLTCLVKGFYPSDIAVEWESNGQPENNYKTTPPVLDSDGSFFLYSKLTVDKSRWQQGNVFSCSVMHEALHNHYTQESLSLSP
light: B1 light
notes: also called Ho Ab L235_09D
B5: GpH7-B3 variant L235_04F/GpL16-k0 (antibody, human IgG1, kappa)
heavy: not shown
light: B1 light
notes: also called Ho Ab L235_04F
B6: GpH7-B3 variant A330_05P/GpL16-k0 (antibody, human IgG1, kappa)
heavy: not shown
light: B1 light
notes: also called Ho Ab A330_05P
B7: GpH7-B3 variant I332_14T/GpL16-k0 (antibody, human IgG1, kappa)
heavy: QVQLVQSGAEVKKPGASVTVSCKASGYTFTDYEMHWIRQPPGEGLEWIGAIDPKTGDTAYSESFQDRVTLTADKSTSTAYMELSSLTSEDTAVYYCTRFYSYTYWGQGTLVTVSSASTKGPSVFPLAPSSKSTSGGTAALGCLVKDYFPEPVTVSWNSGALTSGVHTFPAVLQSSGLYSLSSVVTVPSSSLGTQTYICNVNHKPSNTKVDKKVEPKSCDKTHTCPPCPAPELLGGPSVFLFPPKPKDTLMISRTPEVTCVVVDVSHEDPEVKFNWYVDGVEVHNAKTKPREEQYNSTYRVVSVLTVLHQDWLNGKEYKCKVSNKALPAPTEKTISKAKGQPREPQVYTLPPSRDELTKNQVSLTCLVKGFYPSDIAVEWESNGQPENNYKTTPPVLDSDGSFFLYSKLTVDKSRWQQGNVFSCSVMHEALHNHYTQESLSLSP
light: B1 light
notes: also called Ho Ab I332_14T
B8: GpH7-B3 variant K326_07I/GpL16-k0 (antibody, human IgG1, kappa)
heavy: not shown
light: B1 light
notes: also called Ho Ab K326_07I
B9: GpH7-B3 variant A330_01G/GpL16-k0 (antibody, human IgG1, kappa)
heavy: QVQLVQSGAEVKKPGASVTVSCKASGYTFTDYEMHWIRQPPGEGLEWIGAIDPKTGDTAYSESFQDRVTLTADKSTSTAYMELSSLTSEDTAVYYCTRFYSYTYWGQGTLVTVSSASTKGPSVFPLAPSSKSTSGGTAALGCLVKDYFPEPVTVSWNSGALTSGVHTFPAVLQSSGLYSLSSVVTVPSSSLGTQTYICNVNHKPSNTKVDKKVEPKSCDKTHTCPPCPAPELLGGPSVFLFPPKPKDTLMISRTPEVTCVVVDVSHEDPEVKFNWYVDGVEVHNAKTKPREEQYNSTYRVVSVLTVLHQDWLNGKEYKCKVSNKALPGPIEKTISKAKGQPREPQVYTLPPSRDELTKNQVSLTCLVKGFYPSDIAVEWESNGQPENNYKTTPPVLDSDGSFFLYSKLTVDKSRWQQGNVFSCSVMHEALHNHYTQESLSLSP
light: B1 light
notes: also called Ho Ab A330_01G
B10: GpH7-B3 variant L234_09D/GpL16-k0 (antibody, human IgG1, kappa)
heavy: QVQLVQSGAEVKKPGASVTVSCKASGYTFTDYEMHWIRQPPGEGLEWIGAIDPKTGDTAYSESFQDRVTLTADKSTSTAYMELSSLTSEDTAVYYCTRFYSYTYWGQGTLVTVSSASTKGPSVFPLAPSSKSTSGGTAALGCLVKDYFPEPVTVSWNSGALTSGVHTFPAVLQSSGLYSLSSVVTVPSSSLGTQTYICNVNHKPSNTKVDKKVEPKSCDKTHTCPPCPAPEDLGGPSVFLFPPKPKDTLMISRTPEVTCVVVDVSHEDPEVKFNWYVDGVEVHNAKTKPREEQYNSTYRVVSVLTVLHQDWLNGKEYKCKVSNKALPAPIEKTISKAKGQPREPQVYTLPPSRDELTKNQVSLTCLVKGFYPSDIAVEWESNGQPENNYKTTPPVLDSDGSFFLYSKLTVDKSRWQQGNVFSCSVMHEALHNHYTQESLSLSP
light: B1 light
notes: also called Ho Ab L234_09D
B11: GpH7-B3 variant N325_03V/GpL16-k0 (antibody, human IgG1, kappa)
heavy: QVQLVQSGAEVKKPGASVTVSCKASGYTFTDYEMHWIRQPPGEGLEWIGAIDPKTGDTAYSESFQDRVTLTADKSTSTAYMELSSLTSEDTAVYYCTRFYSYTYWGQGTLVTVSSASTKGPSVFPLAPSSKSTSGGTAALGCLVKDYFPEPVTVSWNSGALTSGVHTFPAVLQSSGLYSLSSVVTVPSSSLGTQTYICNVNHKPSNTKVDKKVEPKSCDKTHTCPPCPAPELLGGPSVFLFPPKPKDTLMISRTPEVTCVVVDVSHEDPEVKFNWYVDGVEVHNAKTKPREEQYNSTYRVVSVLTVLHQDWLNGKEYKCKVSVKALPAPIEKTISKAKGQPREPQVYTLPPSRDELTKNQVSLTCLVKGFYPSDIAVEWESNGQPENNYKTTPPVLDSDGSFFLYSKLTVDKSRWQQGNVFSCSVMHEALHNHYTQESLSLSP
light: B1 light
notes: also called Ho Ab N325_03V
B12: GpH7-B3 variant L328_02A/GpL16-k0 (antibody, human IgG1, kappa)
heavy: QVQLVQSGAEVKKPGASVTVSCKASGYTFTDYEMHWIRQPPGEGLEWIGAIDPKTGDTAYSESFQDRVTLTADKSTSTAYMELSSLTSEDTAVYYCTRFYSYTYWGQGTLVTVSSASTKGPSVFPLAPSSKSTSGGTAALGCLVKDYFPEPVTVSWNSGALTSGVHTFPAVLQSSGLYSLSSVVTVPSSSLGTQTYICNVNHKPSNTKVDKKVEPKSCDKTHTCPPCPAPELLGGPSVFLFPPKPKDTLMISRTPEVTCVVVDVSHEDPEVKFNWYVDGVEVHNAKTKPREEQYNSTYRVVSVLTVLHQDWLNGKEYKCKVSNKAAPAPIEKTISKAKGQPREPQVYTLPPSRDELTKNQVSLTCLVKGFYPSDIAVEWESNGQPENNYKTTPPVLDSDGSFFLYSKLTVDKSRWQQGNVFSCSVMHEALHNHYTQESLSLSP
light: B1 light
notes: also called Ho Ab L328_02A
B13: GpH7-B3 variant G237_13S/GpL16-k0 (antibody, human IgG1, kappa)
heavy: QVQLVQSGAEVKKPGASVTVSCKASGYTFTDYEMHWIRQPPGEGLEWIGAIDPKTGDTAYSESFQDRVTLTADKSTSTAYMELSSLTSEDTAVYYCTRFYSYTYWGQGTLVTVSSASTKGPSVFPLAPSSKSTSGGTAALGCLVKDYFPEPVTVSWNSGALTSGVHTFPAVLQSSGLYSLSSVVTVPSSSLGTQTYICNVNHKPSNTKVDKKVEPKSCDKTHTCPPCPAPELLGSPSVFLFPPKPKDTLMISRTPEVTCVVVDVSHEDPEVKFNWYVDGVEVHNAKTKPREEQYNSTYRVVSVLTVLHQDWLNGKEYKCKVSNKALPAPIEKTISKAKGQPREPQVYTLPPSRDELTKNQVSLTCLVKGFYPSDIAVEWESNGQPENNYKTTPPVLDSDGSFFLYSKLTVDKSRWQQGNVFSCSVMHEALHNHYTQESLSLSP
light: B1 light
notes: also called Ho Ab G237_13S
B14: GpH7-B3 variant I336_06M/GpL16-k0 (antibody, human IgG1, kappa)
heavy: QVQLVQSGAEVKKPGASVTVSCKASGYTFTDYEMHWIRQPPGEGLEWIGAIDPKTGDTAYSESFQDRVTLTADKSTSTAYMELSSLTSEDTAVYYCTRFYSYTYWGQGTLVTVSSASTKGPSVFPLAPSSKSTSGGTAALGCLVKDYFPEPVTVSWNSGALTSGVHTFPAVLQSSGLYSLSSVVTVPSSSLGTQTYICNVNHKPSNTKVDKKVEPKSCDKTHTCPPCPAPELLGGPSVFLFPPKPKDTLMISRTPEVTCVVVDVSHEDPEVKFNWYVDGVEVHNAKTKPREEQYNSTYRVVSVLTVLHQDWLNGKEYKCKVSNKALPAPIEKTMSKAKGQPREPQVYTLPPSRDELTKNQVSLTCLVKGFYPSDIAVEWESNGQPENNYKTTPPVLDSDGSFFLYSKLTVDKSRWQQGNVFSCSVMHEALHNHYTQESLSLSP
light: B1 light
notes: also called Ho Ab I336_06M
B15: GpH7-B3 variant L328_13S/GpL16-k0 (antibody, human IgG1, kappa)
heavy: not shown
light: B1 light
notes: also called Ho Ab L328_13S
B16: GpH7-B3 variant L234_10E/GpL16-k0 (antibody, human IgG1, kappa)
heavy: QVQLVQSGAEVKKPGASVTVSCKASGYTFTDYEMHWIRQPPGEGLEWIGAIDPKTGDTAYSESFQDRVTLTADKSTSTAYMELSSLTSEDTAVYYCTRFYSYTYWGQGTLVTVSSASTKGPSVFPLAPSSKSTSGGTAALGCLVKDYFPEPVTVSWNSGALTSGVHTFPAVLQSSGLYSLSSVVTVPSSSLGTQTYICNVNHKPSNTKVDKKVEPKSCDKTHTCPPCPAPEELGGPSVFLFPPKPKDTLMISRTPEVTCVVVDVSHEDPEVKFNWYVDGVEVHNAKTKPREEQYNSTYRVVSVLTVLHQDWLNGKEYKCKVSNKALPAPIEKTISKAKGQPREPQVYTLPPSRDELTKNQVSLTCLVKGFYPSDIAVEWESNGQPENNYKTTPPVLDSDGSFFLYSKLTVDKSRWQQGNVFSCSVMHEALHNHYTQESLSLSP
light: B1 light
notes: also called Ho Ab L234_10E
B17: GpH7-B3 variant L235_20W/GpL16-k0 (antibody, human IgG1, kappa)
heavy: not shown
light: B1 light
notes: also called Ho Ab L235_20W
B18: GpH7-B3 variant H268_03V/GpL16-k0 (antibody, human IgG1, kappa)
heavy: not shown
light: B1 light
notes: also called Ho Ab H268_03V
B19: GpH7-B3 variant G237_20W/GpL16-k0 (antibody, human IgG1, kappa)
heavy: not shown
light: B1 light
notes: also called Ho Ab G237_20W
B20: GpH7-B3 variant G237_09D/GpL16-k0 (antibody, human IgG1, kappa)
heavy: not shown
light: B1 light
notes: also called Ho Ab G237_09D
B21: GpH7-B3 variant L328_10E/GpL16-k0 (antibody, human IgG1, kappa)
heavy: not shown
light: B1 light
notes: also called Ho Ab L328_10E
B22: GpH7-B3 variant N325_01G/GpL16-k0 (antibody, human IgG1, kappa)
heavy: not shown
light: B1 light
notes: also called Ho Ab N325_01G
B23: GpH7-B3 variant G237_18N/GpL16-k0 (antibody, human IgG1, kappa)
heavy: not shown
light: B1 light
notes: also called Ho Ab G237_18N
B24: GpH7-B3 variant L235_15Y/GpL16-k0 (antibody, human IgG1, kappa)
heavy: not shown
light: B1 light
notes: also called Ho Ab L235_15Y
B25: GpH7-B3 variant A327_18N/GpL16-k0 (antibody, human IgG1, kappa)
heavy: not shown
light: B1 light
notes: also called Ho Ab A327_18N
B26: GpH7-B3 variant G237_04F/GpL16-k0 (antibody, human IgG1, kappa)
heavy: not shown
light: B1 light
notes: also called Ho Ab G237_04F
B27: GpH7-B3 variant G237_10E/GpL16-k0 (antibody, human IgG1, kappa)
heavy: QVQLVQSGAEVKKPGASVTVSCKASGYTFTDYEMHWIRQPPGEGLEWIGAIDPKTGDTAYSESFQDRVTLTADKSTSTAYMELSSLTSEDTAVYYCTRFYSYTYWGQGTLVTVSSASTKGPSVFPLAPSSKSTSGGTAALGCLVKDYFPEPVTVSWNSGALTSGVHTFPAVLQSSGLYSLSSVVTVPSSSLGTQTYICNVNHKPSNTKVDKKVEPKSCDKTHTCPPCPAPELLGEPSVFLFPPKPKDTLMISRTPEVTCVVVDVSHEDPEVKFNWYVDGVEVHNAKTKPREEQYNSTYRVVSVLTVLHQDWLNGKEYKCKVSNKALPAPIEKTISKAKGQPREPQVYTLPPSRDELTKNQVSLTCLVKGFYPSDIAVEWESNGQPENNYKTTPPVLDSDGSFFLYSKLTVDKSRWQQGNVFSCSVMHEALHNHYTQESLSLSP
light: B1 light
notes: also called Ho Ab G237_10E

What follows are binders tested against T1, FcγRIIb extracellular domain with … (assay: SPR (Biacore), relative binding).
Method: Analysis of interaction between objective antibody and the FcγR was carried out using Biacore T100 (GE Healthcare). HBS-EP+ (GE Healthcare) was used as the running buffer, and the measurement temperature was set to 25° C. Chips produced by immobilizing the antigen peptide by the amine coupling method to a Series S Sencor Chip CM5 (GE Healthcare), or alternatively, chips produced by allowing preliminarily biotinylated antigen peptides to interact with and immobilize onto a Series S Sensor Chip SA (certified) (GE Healthcare) were used. Antibodies of interest were captured onto an antigen peptide-immobilized chip, and allowed to interact to each FcγR diluted with running buffer. To regenerate and repeatedly use the chip, the antibodies captured on the chip were washed off by reacting 10 mM glycine-HCl, pH 1.5.

Ho/Con_2b | Binder
132 % of HoCon Ab GpH7-B3/GpL16-k0 | B1
35.3 % of HoCon Ab GpH7-B3/GpL16-k0 | B2
103 % of HoCon Ab GpH7-B3/GpL16-k0 | B3
78.7 % of HoCon Ab GpH7-B3/GpL16-k0 | B4
111 % of HoCon Ab GpH7-B3/GpL16-k0 | B5
35.3 % of HoCon Ab GpH7-B3/GpL16-k0 | B6
106 % of HoCon Ab GpH7-B3/GpL16-k0 | B7
170 % of HoCon Ab GpH7-B3/GpL16-k0 | B8
102 % of HoCon Ab GpH7-B3/GpL16-k0 | B9
68.5 % of HoCon Ab GpH7-B3/GpL16-k0 | B10
31.8 % of HoCon Ab GpH7-B3/GpL16-k0 | B11
117 % of HoCon Ab GpH7-B3/GpL16-k0 | B12
25.7 % of HoCon Ab GpH7-B3/GpL16-k0 | B13
90.1 % of HoCon Ab GpH7-B3/GpL16-k0 | B14
147 % of HoCon Ab GpH7-B3/GpL16-k0 | B15
54.9 % of HoCon Ab GpH7-B3/GpL16-k0 | B16
116 % of HoCon Ab GpH7-B3/GpL16-k0 | B17
109 % of HoCon Ab GpH7-B3/GpL16-k0 | B18
166 % of HoCon Ab GpH7-B3/GpL16-k0 | B19
92.9 % of HoCon Ab GpH7-B3/GpL16-k0 | B20
146 % of HoCon Ab GpH7-B3/GpL16-k0 | B21
20.2 % of HoCon Ab GpH7-B3/GpL16-k0 | B22
63.9 % of HoCon Ab GpH7-B3/GpL16-k0 | B23
127 % of HoCon Ab GpH7-B3/GpL16-k0 | B24
101 % of HoCon Ab GpH7-B3/GpL16-k0 | B25
140 % of HoCon Ab GpH7-B3/GpL16-k0 | B26
17.8 % of HoCon Ab GpH7-B3/GpL16-k0 | B27

— patent US20150344570A1 (published 2015)
